We go through three molecules from article PMC2234237 (The Journal of Cell Biology, 2008).

Test [1] concerns the target Hsp82-MC (residues 260-709) (S. cerevisiae, UniProt P02829 260-709). The test is described as follows: pull-down.
In test [2] the target is T1, Pih1/Nop17, full length, untagged, recombinant (monomeric species) (S. cerevisiae, UniProt P38768 1-344).
T1 sequence: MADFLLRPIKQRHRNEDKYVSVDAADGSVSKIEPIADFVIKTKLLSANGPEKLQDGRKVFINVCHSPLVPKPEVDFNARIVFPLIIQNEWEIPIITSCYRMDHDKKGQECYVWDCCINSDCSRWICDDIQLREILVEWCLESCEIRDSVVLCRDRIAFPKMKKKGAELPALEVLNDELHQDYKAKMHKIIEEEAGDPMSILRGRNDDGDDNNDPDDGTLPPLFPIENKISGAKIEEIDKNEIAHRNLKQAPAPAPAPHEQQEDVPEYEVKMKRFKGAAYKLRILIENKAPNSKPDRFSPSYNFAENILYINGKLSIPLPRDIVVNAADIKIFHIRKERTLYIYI
The test is described as follows: pull-down.

A further test concerns the target Rvb2, recombinant (S. cerevisiae, UniProt Q12464 1-471). Put plainly: SEC. (In general: Size exclusion chromatography separates by hydrodynamic size, large species first.)

Hsp82-MC (residues 260-709), sequence (P02829 260-709): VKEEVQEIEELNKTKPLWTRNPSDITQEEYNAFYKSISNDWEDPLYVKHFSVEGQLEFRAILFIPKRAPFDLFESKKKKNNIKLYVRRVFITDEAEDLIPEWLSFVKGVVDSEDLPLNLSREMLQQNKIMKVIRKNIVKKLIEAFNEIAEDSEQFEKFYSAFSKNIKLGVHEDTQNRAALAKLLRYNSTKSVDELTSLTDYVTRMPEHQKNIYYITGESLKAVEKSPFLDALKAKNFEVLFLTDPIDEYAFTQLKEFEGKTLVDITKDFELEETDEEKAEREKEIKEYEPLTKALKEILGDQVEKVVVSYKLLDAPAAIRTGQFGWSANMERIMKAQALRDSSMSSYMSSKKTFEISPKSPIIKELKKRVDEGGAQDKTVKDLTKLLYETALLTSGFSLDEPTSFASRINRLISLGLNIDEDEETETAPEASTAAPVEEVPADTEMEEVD
Rvb2, recombinant, sequence (Q12464 whole entry): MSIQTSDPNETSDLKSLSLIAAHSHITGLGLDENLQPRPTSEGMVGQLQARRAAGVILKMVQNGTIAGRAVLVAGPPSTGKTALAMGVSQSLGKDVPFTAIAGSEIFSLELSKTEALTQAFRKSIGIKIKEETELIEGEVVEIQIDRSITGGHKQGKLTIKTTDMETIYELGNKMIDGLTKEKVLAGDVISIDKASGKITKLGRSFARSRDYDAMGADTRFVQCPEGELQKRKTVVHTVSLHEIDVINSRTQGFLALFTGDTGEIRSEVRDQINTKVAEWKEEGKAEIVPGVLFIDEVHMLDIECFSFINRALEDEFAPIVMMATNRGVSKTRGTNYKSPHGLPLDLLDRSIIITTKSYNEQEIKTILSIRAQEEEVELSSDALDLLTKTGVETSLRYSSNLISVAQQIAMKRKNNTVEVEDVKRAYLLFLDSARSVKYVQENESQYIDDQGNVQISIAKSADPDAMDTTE

B1: Sti1 TPR2a domain (residues 260-386) (domain or fragment)
chain: IEADKEKAEGNKFYKARQFDEAIEHYNKAWELHKDITYLNNRAAAEYEKGEYETAISTLNDAVEQGREMRADYKVISKSFARIGNAYHKLGDLKKTIEYYQKSLTEHRTADILTKLRNAEKELKKAE
On to B1, for which the binding result in test [1] is listed as “binds”.

B2: Tah1, full length, recombinant (natural protein)
chain: MSQFEKQKEQGNSLFKQGLYREAVHCYDQLITAQPQNPVGYSNKAMALIKLGEYTQAIQMCQQGLRYTSTAEHVAIRSKLQYRLELAQGAVGSVQIPVVEVDELPEGYDRS
Consider B2, for which the binding result in test [2] and in test [1] was “binds” each time.

B3: Rvb1, recombinant (natural protein)
chain: MVAISEVKENPGVNSSNSGAVTRTAAHTHIKGLGLDESGVAKRVEGGFVGQIEAREACGVIVDLIKAKKMSGRAILLAGGPSTGKTALALAISQELGPKVPFCPLVGSELYSVEVKKTETLMENFRRAIGLRIKETKEVYEGEVTELTPEDAENPLGGYGKTISHVIVGLKSAKGTKTLRLDPTIYESIQREKVSIGDVIYIEANTGAVKRVGRSDAYATEFDLETEEYVPLPKGEVHKKKEIVQDVTLHDLDVANARPQGGQDVISMMGQLLKPKKTEITEKLRQEVNKVVAKYIDQGVAELIPGVLFIDEVNMLDIEIFTYLNKALESNIAPVVVLASNRGMTTVRGTEDVISPHGVPPDLIDRLLIVRTLPYDKDEIRTIIERRATVERLQVESSALDLLATMGTETSLRYALQLLAPCGILAQTSNRKEIVVNDVNEAKLLFLDAKRSTKILETSANYL
Consider B3, for which, in the test with Rvb2, recombinant, the binding result is recorded as “binds”.
